In patent US20210238276A1 (INTEGRAL MOLECULAR, published 2021):
Positions count from the first letter of the chain named.

B1: AB108 (Fc fusion)
scFv: ALTQPSSVSANLGGTVKITCSGSSGSYGWYQQKAPGSAPVTLIYRNDKRPSDIPSRFSGSESGSTGTLTITGVQAEDEAVYFCGGYDSSAGYAAFGAGTTLTVLGQSSRSSGGGGSSGGGGSAVTLDESGGGLQTPGGALSLVCKASGFTFSSHGMGWVRQAPGKGLEWVGSISTGRYTFYAPAVKGRATISRDNGQSTLRLQLNNLRAEDTGTYYCTKCAGLNGCGGGEIDAWGHGTEVIVSS
notes: Bivalent scFv-Fc; also called MAb AB108; not shown: Fc fragment of human IgG1, cloned in frame with the scFv
B2: AB111 (Fc fusion)
scFv: ALTQPSSVSANPGETVKITCSGSGSWYGWFQQKSPGSAPVTVIYSNDKRPSDIPSRFSGSKSGSTSTLTITGVQVEDEAVYYCGNWDIFGAGTTLTVLGQSSRSSGGGGSSGGGGSAVTLDESGGGLQTPGGALSLVCKASGFTFSSHGMGWVRQAPGKGLEWVASISTGRYTFYAPAVKGRATISRDNGQSTVRLQLNNLRAEDTATYYCTKCAGLNGCGGGEIDAWGHGTEVIVSS
notes: Bivalent scFv-Fc; also called MAb AB111; not shown: Fc fragment of human IgG1, cloned in frame with the scFv
B3: AB105 (Fc fusion)
scFv: ALTQPSSVSANPGETVEITCSGDSSYYGWYQQKSPGSAPVTVIYANTNRPSDIPSRFSGSASGSTATLTITGVQAEDEAVYYCGSADSTYAGIFGAGTTLTVLGQSSRSSGGGGSSGGGGSAVTLDESGGGLQTPGGALSLICKASGFTFSSYTMNWVRQAPGKGLEWVGVISNSGRTTNYGAAVQGRATISRDNGQSTVRLQLNNLRAEDTGTYYCAKSSASASCAWWAGRSYPCSANRIDAWGHGTEVIVSS
notes: Bivalent scFv-Fc; also called MAb AB105; not shown: Fc fragment of human IgG1, cloned in frame with the scFv
B4: AB101 (scFv)
scFv: ALTQPSSVSANPGETVKITCSGSSNSYGWYQQKSPGSAPVTVIYYNDKRPSDIPSRFSGSKSDSTHTLTITGVRAEDEAVYFCGSYDSTYVGIFGAGTTLTVLGQSSRSSGGGGSSGGGGSAVTLDESGGGLQTPGGTLSLVCKASGFTFSSNAMGWVRQAPGKGLEWVAGISSDGRYTKYGSAVKGRATISRDNGQSTVRLQLNNLRAEDTGTYFCAKAFGNNYRRIYAGQIDAWGHGTEVIVSS
notes: Chicken-derived clone used as a control; the four lead clones were tested as scFv-human IgG1 Fc; also called MAb AB101

How the values were obtained:
Experiment in all cases: flow cytometry, alanine-scan library in HEK-293T
hsGLUT4 G348A = molecular target: T1, hsGLUT4 G348A (human, UniProt P14672 1-509)
T1 sequence: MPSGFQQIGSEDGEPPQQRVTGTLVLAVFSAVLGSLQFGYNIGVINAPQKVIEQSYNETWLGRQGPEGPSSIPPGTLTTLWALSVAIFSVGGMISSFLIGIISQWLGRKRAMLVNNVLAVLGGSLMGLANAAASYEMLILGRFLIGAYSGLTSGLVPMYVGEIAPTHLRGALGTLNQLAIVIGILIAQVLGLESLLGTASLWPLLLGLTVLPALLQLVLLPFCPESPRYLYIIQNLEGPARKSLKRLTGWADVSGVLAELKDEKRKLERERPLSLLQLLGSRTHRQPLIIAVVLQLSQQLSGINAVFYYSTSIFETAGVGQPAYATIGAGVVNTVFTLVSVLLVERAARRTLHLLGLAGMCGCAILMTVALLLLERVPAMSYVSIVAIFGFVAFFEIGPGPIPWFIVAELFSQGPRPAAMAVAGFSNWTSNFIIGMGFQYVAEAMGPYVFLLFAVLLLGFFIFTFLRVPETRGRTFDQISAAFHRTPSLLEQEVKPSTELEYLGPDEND
How it was run: (§1)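 HEK-293T cells expressing individual GLUT4 alanine mutants were stained 48 h post-transfection with anti-GLUT4 scFv MAbs (2 μg/ml), then biotinylated secondary and streptavidin-PerCP, and read by high-throughput flow cytometry. Where used, cytochalasin B (10 uM final) was given for 30 min before and during primary antibody staining.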

hsGLUT4 Y502A = molecular target: T2, hsGLUT4 Y502A (human, UniProt P14672 1-509)
T2 sequence: T1 sequence with A348G, Y502A
How it was run: as §1

hsGLUT4 E162A = molecular target: T3, hsGLUT4 E162A (human, UniProt P14672 1-509)
T3 sequence: T1 sequence with E162A, A348G
How it was run: as §1

hsGLUT4 N304A = molecular target: T4, hsGLUT4 N304A (human, UniProt P14672 1-509)
T4 sequence: T1 sequence with N304A, A348G
How it was run: as §1

Molecule	% of binding to wild type GLUT4 (hsGLUT4 G348A) [%]	% of binding to wild type GLUT4 (hsGLUT4 Y502A) [%]	% of binding to wild type GLUT4 (hsGLUT4 E162A) [%]	% of binding to wild type GLUT4 (hsGLUT4 N304A) [%]
1F8 (antibody)	109	51	87	79
B1	94	94	41	72
B2	161	169	72	125
B3				11
B4	101	4	83	145
